This experiment has as its target 개 인플루엔자 바이러스 H3N2 (Canine influenza virus H3N2). The experiment can be described thus: cell-based or functional assay.

B1: 개 인플루엔자 바이러스 단일클론항체 3E2 (antibody, V domains shown)
VH: EVKLVESGGGLVQPGGSLRLSCATSGFTFTDYYMSWVRQPPGKALEWLGFIRNKANGYTTEYSASVKGRFTISRDNSQSILYLQMNTLRPEDSATYYCARDTPVARGVCLLGQGTLVTVSA
VL: DIVMTQSPSSLAVSAGEKVTMSCKSSQSLLNSRTRQNYLAWYQQKPGQSPKLLIYWASTRESGVPDRFTGSGSGTDFTLTISSVQAEDLAVYYCKQSYSLWTFGGGTKLEIK
With B1, the HI titer (3E2 mAb 하이브리도마 상층액) amounted to 128 and the HI titer (3E2 mAb) was 131000.

The values above are taken from KR20210053410A.
